Holding throughout (test): co-IP with anti-FLAG, C-FLAG B3GNT2, mass spectrometry
The target in one assay is T1, PKM (human, UniProt P14618 2-531, limits assumed).
T1 construct: also called NP_001193725.1 (+3)

A further assay addresses T2, DDX1 (human, UniProt Q92499 1-740).
T2 construct: also called NP_004930.1
T2 sequence (looked up): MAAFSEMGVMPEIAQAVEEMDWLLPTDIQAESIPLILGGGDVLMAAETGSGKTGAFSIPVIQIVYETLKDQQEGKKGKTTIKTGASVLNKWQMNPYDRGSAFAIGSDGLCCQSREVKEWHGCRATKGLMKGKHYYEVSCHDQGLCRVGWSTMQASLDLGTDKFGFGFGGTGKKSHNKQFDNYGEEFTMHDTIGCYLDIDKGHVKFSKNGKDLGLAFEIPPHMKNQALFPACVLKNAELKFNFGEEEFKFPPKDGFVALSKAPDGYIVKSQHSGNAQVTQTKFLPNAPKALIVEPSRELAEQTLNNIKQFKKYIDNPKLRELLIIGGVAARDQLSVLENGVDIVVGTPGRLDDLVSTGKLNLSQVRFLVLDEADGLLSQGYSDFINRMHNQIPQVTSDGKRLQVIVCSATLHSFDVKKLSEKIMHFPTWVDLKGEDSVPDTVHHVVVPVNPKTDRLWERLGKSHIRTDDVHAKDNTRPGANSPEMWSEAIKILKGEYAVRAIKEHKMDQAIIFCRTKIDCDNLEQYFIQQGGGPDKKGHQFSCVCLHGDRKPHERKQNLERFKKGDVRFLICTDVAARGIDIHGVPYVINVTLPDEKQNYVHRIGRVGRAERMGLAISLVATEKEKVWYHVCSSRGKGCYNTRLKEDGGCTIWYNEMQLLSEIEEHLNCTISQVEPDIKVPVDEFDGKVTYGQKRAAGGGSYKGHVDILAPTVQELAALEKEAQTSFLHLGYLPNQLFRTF

The target in another assay is T3, PUF60 (human, UniProt Q9UHX1 1-559, limits assumed).
T3 construct: also called NP_016868724.1
T3 sequence (looked up): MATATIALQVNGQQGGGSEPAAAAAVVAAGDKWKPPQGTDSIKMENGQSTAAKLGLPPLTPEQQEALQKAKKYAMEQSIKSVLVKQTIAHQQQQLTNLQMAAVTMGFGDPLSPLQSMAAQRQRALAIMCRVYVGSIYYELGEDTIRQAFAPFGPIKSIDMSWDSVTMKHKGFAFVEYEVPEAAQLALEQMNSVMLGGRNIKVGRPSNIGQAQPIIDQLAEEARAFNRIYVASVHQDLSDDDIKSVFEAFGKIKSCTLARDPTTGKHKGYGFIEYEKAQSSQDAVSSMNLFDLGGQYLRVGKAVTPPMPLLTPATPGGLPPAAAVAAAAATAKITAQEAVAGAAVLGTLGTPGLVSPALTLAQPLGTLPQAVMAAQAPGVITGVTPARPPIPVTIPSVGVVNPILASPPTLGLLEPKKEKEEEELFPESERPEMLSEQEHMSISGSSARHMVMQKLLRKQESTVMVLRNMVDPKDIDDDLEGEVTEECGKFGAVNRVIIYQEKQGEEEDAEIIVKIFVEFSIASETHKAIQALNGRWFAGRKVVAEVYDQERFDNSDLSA

In a further assay the target is RPS20 (human, UniProt P60866 2-119).
The next assay deals with T4, HBB (human, UniProt P68871 2-147).
T4 construct: also called NP_000509.1
T4 sequence (P68871 2-147 limits assumed): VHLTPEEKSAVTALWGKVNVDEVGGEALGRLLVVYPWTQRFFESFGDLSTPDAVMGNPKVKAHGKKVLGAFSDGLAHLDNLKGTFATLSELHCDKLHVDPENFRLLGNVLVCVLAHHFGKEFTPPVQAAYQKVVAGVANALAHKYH

Another assay concerns the target T5, DDX17 (human, UniProt Q92841 1-729, limits assumed).
T5 construct: also called NP_001091974.1

These results are taken from patent US20240261333A1 (published 2024).

T5 sequence (Q92841 whole entry): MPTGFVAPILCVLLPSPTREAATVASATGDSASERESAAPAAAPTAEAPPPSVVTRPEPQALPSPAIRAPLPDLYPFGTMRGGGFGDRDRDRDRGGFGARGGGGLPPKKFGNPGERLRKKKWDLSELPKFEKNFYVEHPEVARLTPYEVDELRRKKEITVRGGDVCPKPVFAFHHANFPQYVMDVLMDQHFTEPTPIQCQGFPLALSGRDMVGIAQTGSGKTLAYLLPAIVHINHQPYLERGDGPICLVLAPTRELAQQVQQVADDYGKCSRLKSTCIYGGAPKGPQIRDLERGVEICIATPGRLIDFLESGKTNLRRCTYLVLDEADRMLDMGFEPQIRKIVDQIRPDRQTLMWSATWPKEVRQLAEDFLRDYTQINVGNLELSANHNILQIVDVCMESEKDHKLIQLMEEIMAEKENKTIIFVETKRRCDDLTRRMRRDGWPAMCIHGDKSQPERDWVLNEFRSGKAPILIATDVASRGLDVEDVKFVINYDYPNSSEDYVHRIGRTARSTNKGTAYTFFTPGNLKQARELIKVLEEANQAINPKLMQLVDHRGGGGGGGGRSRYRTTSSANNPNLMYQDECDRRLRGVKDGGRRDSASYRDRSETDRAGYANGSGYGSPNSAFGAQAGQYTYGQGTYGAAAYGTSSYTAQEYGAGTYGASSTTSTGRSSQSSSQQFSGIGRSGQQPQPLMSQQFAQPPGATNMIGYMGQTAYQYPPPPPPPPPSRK
T1 sequence (P14618 2-531 limits assumed): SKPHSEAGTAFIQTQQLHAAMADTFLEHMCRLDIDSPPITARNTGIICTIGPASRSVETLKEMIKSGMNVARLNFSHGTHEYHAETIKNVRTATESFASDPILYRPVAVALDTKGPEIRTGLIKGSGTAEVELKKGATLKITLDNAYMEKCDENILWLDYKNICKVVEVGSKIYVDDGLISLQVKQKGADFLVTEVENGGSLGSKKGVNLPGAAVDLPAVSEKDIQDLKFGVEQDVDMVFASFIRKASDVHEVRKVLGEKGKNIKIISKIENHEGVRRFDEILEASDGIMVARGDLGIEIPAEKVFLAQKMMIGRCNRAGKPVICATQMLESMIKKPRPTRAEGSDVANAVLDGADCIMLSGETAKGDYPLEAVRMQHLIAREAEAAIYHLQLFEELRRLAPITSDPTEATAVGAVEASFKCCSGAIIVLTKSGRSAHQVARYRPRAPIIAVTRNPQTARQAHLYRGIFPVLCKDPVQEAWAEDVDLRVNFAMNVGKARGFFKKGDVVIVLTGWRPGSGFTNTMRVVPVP

B1: C-terminal FLAG tagged B3GNT2 (enzyme, human, UniProt Q9NY97 1-397, looked up)
chain: MSVGRRRIKLLGILMMANVFIYFIMEVSKSSSQEKNGKGEVIIPKEKFWKISTPPEAYWNREQEKLNRQYNPILSMLTNQTGEAGRLSNISHLNYCEPDLRVTSVVTGFNNLPDRFKDFLLYLRCRNYSLLIDQPDKCAKKPFLLLAIKSLTPHFARRQAIRESWGQESNAGNQTVVRVFLLGQTPPEDNHPDLSDMLKFESEKHQDILMWNYRDTFFNLSLKEVLFLRWVSTSCPDTEFVFKGDDDVFVNTHHILNYLNSLSKTKAKDLFIGDVIHNAGPHRDKKLKYYIPEVVYSGLYPPYAGGGGFLYSGHLALRLYHITDQVHLYPIDDVYTGMCLQKLGLVPEKHKGFRTFDIEEKNKNNICSYVDLMLVHSRKPQEMIDIWSQLQSAHLKC
notes: FLAG-tagged ORF overexpressed in cells; pulled down from lysate with mouse anti-FLAG; also called C-FLAG B3GNT2; C-term flag; not shown: C-terminal FLAG tag
Turning to B1, the entries for the “co-IP mass spectrometry count” value in the assay with PKM and in the assay with DDX1 were 3 and 4, respectively.

B2: C-terminal FLAG tagged B3GNT2 (enzyme, human, UniProt Q9NY97 1-397, looked up)
chain: B1 chain
notes: FLAG-tagged ORF overexpressed in A375 cells; pulled down from the lysate with mouse anti-FLAG; also called C-FLAG B3GNT2; C-term flag; not shown: C-terminal FLAG tag
In the case of B2, the “co-IP/MS count, C-term flag” value with PUF60 worked out at 6; in the assay with RPS20 it was 7; with HBB, 0; with DDX17, 30.
